Results: patent US20230391826A1, “COMPOSITIONS AND METHODS FOR TREATING DISEASES” (Sanford Burnham Prebys Medical Discovery Institute, priority 2020, published 2023)

Assays:
[1] = target: EphA2 endogenously expressed on PC3 prostate cancer cells (UniProt P29317); experiment: cell-based or functional assay
[2] = target: EphA2 extracellular domain fused to the Fc portion of an antibody (EphA2-Fc); experiment: ELISA, inhibition of ephrinA5-AP binding to immobilized EphA2-Fc
[3] = target: EphA2 extracellular domain fused to the Fc portion of an antibody (EphA2-Fc); experiment: ELISA, inhibition of ephrinA5-AP binding to immobilized EphA2-Fc; representative experiment, triplicates

EphA2 endogenously expressed on PC3 prostate cancer cells, sequence (P29317 24-976 limits assumed): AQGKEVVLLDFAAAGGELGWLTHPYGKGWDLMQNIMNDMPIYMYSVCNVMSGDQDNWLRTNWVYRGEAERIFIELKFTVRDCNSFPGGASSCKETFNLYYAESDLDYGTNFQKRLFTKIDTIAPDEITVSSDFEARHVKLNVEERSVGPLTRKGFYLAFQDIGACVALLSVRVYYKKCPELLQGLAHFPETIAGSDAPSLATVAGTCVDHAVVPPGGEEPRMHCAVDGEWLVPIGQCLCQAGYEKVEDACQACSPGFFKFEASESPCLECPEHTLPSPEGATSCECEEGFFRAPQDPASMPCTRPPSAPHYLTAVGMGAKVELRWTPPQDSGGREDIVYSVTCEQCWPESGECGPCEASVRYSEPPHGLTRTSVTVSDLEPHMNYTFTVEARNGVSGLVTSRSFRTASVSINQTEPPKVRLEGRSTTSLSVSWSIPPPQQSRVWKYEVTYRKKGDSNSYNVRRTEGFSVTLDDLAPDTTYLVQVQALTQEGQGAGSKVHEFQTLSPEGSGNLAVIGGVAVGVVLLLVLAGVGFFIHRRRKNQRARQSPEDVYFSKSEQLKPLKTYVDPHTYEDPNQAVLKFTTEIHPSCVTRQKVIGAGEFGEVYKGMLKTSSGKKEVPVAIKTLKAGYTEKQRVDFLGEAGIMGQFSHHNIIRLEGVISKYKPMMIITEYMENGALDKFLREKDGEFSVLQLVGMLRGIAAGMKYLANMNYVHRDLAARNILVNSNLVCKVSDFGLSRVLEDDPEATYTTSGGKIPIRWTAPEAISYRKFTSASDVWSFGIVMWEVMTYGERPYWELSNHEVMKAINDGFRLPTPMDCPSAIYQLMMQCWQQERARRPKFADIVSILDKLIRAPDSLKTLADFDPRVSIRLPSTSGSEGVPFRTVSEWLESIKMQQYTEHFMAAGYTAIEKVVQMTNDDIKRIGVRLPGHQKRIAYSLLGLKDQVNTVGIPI
m-ephrinA1 (monomer) (ligand), sequence (P20827 19-182): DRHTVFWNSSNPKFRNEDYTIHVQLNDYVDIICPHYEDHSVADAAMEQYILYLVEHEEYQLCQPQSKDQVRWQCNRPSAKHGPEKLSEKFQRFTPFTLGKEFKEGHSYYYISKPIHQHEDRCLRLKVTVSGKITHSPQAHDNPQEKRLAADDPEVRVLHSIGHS

Substance	Blig (bias factor) [1]	EC50 PY588 [1]	EC50 pAKT inhib [1]	EC50 pY588 [1]	Emax PY588 (normalized to ephrinA1-Fc) [1]	Etop pAKT inhib [1]	IC50 PAKT [1]	βlig (bias factor) [1]	IC50 [2]	IC50 [3]	Etop pY588 (normalized to ephrinA1-Fc) [1]
ephrinA1-Fc (dimer) (Fc fusion)	0	0.81 nM	1.7 nM	3.8 nM	1	1	0.62 nM	0	–	–	–
CGA-WLA-YRPKam dimer (N-ter) (peptide)	–	–	–	–	–	–	–	–	0.4 nM	0.49 nM	–
m-ephrinA1 (monomer) (ligand)	0.3	28 nM	27 nM	74 nM	0.74	1	13 nM	0.54	21 nM	19 nM	0.36
